T1: recombinant RNA-DEPENDENT RNA POLYMERASE 2 (RDR2), wild type, with N-terminal V5 epitope and 6xHis tags (A. thaliana, UniProt O82504 1-1133)
T1 sequence (looked up): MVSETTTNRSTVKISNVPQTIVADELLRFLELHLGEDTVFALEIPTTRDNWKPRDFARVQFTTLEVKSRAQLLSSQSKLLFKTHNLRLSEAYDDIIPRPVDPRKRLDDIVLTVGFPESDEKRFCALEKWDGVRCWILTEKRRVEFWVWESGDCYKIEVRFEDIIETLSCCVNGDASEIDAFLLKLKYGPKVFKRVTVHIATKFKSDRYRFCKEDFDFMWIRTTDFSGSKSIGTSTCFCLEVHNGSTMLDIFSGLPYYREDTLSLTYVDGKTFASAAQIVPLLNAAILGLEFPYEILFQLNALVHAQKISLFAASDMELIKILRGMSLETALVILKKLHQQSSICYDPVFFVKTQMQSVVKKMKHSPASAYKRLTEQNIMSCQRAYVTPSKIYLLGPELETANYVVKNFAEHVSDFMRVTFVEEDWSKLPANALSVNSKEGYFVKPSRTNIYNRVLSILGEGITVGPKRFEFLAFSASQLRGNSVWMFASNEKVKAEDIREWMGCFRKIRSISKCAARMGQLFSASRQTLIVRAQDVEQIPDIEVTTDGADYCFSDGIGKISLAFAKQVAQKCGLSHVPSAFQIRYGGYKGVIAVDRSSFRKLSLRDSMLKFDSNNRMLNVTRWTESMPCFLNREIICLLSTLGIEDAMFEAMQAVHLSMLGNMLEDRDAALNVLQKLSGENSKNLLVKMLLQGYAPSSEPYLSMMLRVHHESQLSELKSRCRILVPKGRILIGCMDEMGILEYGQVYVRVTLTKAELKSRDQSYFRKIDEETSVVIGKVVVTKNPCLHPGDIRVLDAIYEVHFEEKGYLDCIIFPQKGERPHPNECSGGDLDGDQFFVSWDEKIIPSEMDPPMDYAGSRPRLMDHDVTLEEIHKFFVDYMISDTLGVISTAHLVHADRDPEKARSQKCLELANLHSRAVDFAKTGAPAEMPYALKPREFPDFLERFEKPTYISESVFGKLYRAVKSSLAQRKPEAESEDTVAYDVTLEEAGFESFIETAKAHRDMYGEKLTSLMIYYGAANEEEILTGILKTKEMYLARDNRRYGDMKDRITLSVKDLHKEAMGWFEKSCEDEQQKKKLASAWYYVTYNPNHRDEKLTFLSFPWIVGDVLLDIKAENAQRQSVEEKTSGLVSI

B1: recombinant RDR2_(771–970) with His and HA tags, made in E. coli (domain or fragment, A. thaliana, UniProt O82504 771-970, looked up)
chain: ETSVVIGKVVVTKNPCLHPGDIRVLDAIYEVHFEEKGYLDCIIFPQKGERPHPNECSGGDLDGDQFFVSWDEKIIPSEMDPPMDYAGSRPRLMDHDVTLEEIHKFFVDYMISDTLGVISTAHLVHADRDPEKARSQKCLELANLHSRAVDFAKTGAPAEMPYALKPREFPDFLERFEKPTYISESVFGKLYRAVKSSLAQ
notes: The methods give the C-terminal limit as 971, the results and legends as 970; More in SI Appendix, Methods; source: E. coli (pET28 vector), purified (nickel-NTA by the methods; anti-HA resin by the results)
B2: recombinant NRPD1_(1–300) with His and FLAG tags, made in E. coli (domain or fragment, A. thaliana, UniProt Q9LQ02 1-300, looked up)
chain: MEDDCEELQVPVGTLTSIGFSISNNNDRDKMSVLEVEAPNQVTDSRLGLPNPDSVCRTCGSKDRKVCEGHFGVINFAYSIINPYFLKEVAALLNKICPGCKYIRKKQFQITEDQPERCRYCTLNTGYPLMKFRVTTKEVFRRSGIVVEVNEESLMKLKKRGVLTLPPDYWSFLPQDSNIDESCLKPTRRIITHAQVYALLLGIDQRLIKKDIPMFNSLGLTSFPVTPNGYRVTEIVHQFNGARLIFDERTRIYKKLVGFEGNTLELSSRVMECMQYSRLFSETVSSSKDSANPYQKKSDT
notes: NRPD1, A. thaliana, amino acids 1-300 of 1,453; More in SI Appendix, Methods; also called NRPD1_(1–300)-FLAG; FLAG-tagged NRPD1_(1–300); source: E. coli (pET28 vector), purified (nickel-NTA by the methods; by its C-terminal FLAG tag by the results); not shown: FLAG, C-terminal, kept
B3: RDR2 peptide 12 of the RDR2_(771–970) peptide array (peptide, UniProt O82504 881-895, looked up)
peptide: ISDTLGVISTAHLVH
notes: RDR2, A. thaliana; 15-mer of the array; limits worked out from the design; Peptides were 'typically' 15 amino acids long; source: synthetic peptide (Genscript)
B4: RDR2 peptide 11 of the RDR2_(771–970) peptide array (peptide, UniProt O82504 871-885, looked up)
peptide: EIHKFFVDYMISDTL
notes: RDR2, A. thaliana; 15-mer of the array; limits worked out from the design; holds K874; Peptides were 'typically' 15 amino acids long; source: synthetic peptide (Genscript)
B5: RDR2 peptide 10 of the RDR2_(771–970) peptide array (peptide, UniProt O82504 861-875, looked up)
peptide: RLMDHDVTLEEIHKF
notes: as for B4
B6: NRPD1 peptide 12 of the NRPD1_(1–300) peptide array (peptide, UniProt Q9LQ02 111-125, looked up)
peptide: TEDQPERCRYCTLNT
notes: NRPD1, A. thaliana; 15-mer of the array; limits worked out from the design; holds a CxxC motif; Peptides were 'typically' 15 amino acids long; source: synthetic peptide (Genscript)
B7: NRPD1 peptide 24 of the NRPD1_(1–300) peptide array (peptide, UniProt Q9LQ02 231-245, looked up)
peptide: RVTEIVHQFNGARLI
notes: NRPD1, A. thaliana; 15-mer of the array; limits worked out from the design; Peptides were 'typically' 15 amino acids long; source: synthetic peptide (Genscript)
B8: NRPD1 peptide 25 of the NRPD1_(1–300) peptide array (peptide, UniProt Q9LQ02 241-255, looked up)
peptide: GARLIFDERTRIYKK
notes: NRPD1, A. thaliana; 15-mer of the array; limits worked out from the design; holds K254 and K255; Peptides were 'typically' 15 amino acids long; source: synthetic peptide (Genscript)
B9: NRPD1 peptide 10 of the NRPD1_(1–300) peptide array (peptide, UniProt Q9LQ02 91-105, looked up)
peptide: ALLNKICPGCKYIRK
notes: as for B6
B10: NRPD1 peptide 13 of the NRPD1_(1–300) peptide array (peptide, UniProt Q9LQ02 121-135, looked up)
peptide: CTLNTGYPLMKFRVT
notes: NRPD1, A. thaliana; 15-mer of the array; limits worked out from the design; holds K131; Peptides were 'typically' 15 amino acids long; source: synthetic peptide (Genscript)
B11: NRPD1 peptide 26 of the NRPD1_(1–300) peptide array (peptide, UniProt Q9LQ02 251-265, looked up)
peptide: RIYKKLVGFEGNTLE
notes: as for B8
B12: NRPD1 peptide 9 of the NRPD1_(1–300) peptide array (peptide, UniProt Q9LQ02 81-95, looked up)
peptide: INPYFLKEVAALLNK
notes: NRPD1, A. thaliana; 15-mer of the array of 30 peptides over 1-300 that overlap by 5; limits worked out from the design; Peptides were 'typically' 15 amino acids long; source: synthetic peptide (Genscript)

Target: B2
Test: co-IP; purified recombinant proteins, 0.25 µM each, 30 min, room temperature, 50 mM Hepes-KOH pH 7.5, 150 mM NaCl; IP with resin against the tag of one or the other partner (anti-FLAG, anti-V5 or anti-HA); immunoblot
Settings: both partners purified

binding result | Binder
binds | B1

Target: T1, recombinant RNA-DEPENDENT RNA …
Test: as above
Settings: both partners purified

binding result | Binder
binds | B2

Target: B2
Test: peptide or protein array; synthetic peptides (10 ng) dot-blotted onto nitrocellulose, probed with about 200 ng NRPD1_(1–300)-FLAG or RDR2_(771–970)-HA in 8 mL 50 mM Hepes-KOH pH 7.5, 100 mM NaCl, room temperature, 1 h; anti-FLAG-HRP or anti-HA-HRP, chemiluminescence
Settings: both partners purified

binding result | Binder
binds | B3
binds | B4
binds | B5

Target: B1
Test: as above
Settings: both partners purified

binding result | Binder
binds | B6
binds | B7
binds | B8
binds | B9
binds | B10
binds | B11
binds | B12
